Experiment [1] has as its system Arabidopsis WT (Col-0) detached rosette leaves. Description: Detached leaf senescence assay, WT. Type of experiment: in vivo, Arabidopsis thaliana. As to the method: (§1) A. thaliana ecotype Columbia-0 and mutants used in this study include mik2-1 (SALK_06269), mik2-2 (CS419958), proscoop10-1 (SALK_080439), and proscoop10-2 (SALK_027949), which were obtained from ABRC. The proscoop12 CRISPR-Cas9-generated mutants were kindly provided by Dr. Elia Stahi at the University of Lausanne, Switzerland ([Stahl et al., 2022]). Imbibed seeds were incubated at 4°C in a refrigerator for 2 days before sowing on the soil mix (3 parts commercial soil: 1 parts vermiculite) and grown under the long-day condition (16 h light/8 h dark) in a growth chamber with 150 μmol m^−2 s^−1 light intensity. For the senescence phenotyping of detached leaves, the fifth and sixth rosette leaves of 25-day-old plants were removed and placed in Petri dishes with the adaxial side facing up. The Petri dishes were sealed with parafilm to prevent water loss, and the leaves were incubated with deionized water. The application of exogenous peptides followed the previously established method ([Zhang et al., 2022a], [2022b]). […] All data including plant phenotypes and gene expression presented in this study were analyzed with GraphPad Prism 9, and at least three biological replicates were included in each experiment. Chl content, photochemical efficiency of PSII (Fv/Fm ratio), and ion leakage were determined as previously described ([Zhang et al., 2020], [2022b]; [Guo et al., 2022]).

Experiment [2] concerns 6× His-tagged ectodomains of MIK2. The experiment is described as follows: Competitive pull-down assay. It counts as binding, Arabidopsis thaliana. Particulars: 50 nM MIK2 ectodomain, 250 nM biotinylated SCOOP10 or SCOOP12, 1 h, then increasing concentrations of the other peptide; anti-His Western blot, densitometry; three replicates. Here is the method:
(§2) Subsequently, 30 μL streptavidin magnetic beads (New England Biolabs) were added to each sample and incubated for 1 h at 4°C, followed by washing 5–6 times with 1.0 mL of interactive buffer. The proteins bound to the beads were then eluted using interactive buffer containing 5× SDS loading buffer, and western blot analysis was conducted as previously described ([Lan et al., 2023]). In the competitive binding assay, 50 nM purified MIK2 protein featuring a His-tag at its C-terminal was initially mixed with 250 nM of biotinylated SCOOP10. […] After thorough mixing, the beads underwent 5–6 washes to meticulously remove any residual proteins, and then the preparations were subjected to detailed analysis via western blotting to probe the interactions.

The next experiment deals with bak1 mutants. Details: method as in Hou et al., 2021b. Particulars: ref Hou et al., 2021b; cited from earlier work.
The test system of experiment [3] is Arabidopsis mik2 mutant detached rosette leaves. Description: Detached leaf senescence assay, mik2 mutants. It counts as in vivo, Arabidopsis thaliana. Particulars: SCOOP10 1 μM (Figures 3A–3C). Here is the method: as §1
Experiment [4] has as its system MIK2-dependent plant immune response. Particulars: ref Hou et al., 2021b, Rhodes et al.; cited from earlier work. The source says:
Senescence, a crucial biological event in plant development, involves the coordinated breakdown of cellular components to recycle nutrients, aiding adaptation to changing environments. It optimizes nutrient storage and reuse, particularly in leaves, the primary photosynthetic organs. Initiation of leaf senescence prompts various physiological changes, including chlorophyll (Chl) reduction and macromolecule degradation, enabling nutrient recycling that supports the growth of seeds and fruits ([Yang et al., 2014]; [Kim et al., 2018]; [Woo et al., 2019]; [Guo et al., 2021]). Efficient senescence ... || MIK2 was also linked to cell wall integrity ([Van der Does et al., 2017]; [Coleman et al., 2020]) and disease resistance ([Van der Does et al., 2017]). MIK2 was reported to function in elicitor perception in response to infection by Fusarium spp. fungi ([Van der Does et al., 2017]; [Coleman et al., 2020]). […] Loss-of-function in p ...

In experiment [5] the test system is purified His-tagged MIK2 ectodomain. Description: Pull-down assay with biotinylated peptides. It counts as binding, Arabidopsis thaliana. Particulars: biotinylated peptide, streptavidin magnetic beads, 20 mM Tris-HCl pH 7.3, 150 mM NaCl, 0.1% NP-40, anti-His Western blot, repeated three times, conclusion also rests on MST. As to the method: as §2
In experiment [6] the test system is bak1-5 serk4 double mutant. Details: method as in Hou et al., 2021b. Particulars: ref Hou et al., 2021b; cited from earlier work.
Another experiment concerns PROSCOOP10 transcript. Description: qPCR expression of PROSCOOP10 in detached leaves. It counts as cell-based, Arabidopsis thaliana. An excerpt:
Total RNA was isolated from Arabidopsis leaves with the RNAiso Plus (TAKARA) and reverse transcribed using the PrimeScript RT reagent Kit (TAKARA). qPCR reactions were implemented in an Applied Biosystems 7500 Real-Time PCR system with the SYBR Premix Ex Taq II (TAKARA). ACTIN was used as the reference gene for qPCR analyses. The primers used for qPCR are listed in Supplemental Table 2.

The subject of experiment [7] is Arabidopsis WT intact rosette leaves. The experiment is described as follows: Exogenous peptide application on intact rosette leaves. It counts as in vivo, Arabidopsis thaliana. Particulars: SCOOP10 1 μM sprayed, vs mock. As to the method: A. thaliana ecotype Columbia-0 and mutants used in this study include mik2-1 (SALK_06269), mik2-2 (CS419958), proscoop10-1 (SALK_080439), and proscoop10-2 (SALK_027949), which were obtained from ABRC. The proscoop12 CRISPR-Cas9-generated mutants were kindly provided by Dr. Elia Stahi at the University of Lausanne, Switzerland ([Stahl et al., 2022]). Imbibed seeds were incubated at 4°C in a refrigerator for 2 days before sowing on the soil mix (3 parts commercial soil: 1 parts vermiculite) and grown under the long-day condition (16 h light/8 h dark) in a growth chamber with 150 μmol m^−2 s^−1 light intensity. For the senescence phenotyping of detached leaves, the fifth and sixth rosette leaves of 25-day-old plants were removed and placed in Petri dishes with the adaxial side facing up. The Petri dishes were sealed with parafilm to prevent water loss, and the leaves were incubated with deionized water. The application of exogenous peptides followed the previously established method ([Zhang et al., 2022a], [2022b]). For dark-induced leaf senescence assays, detached rosette leaves were incubated in deionized water placed in the dark condition for 6 days. At least three biological replicates were included for each assay. For senescence phenotype analysis under normal growth conditions, homozygous plants were grown alongside Col-0. All data including plant phenotypes and gene expression presented in this study were analyzed with GraphPad Prism 9, and at least three biological replicates were included in each experiment. Chl content, photochemical efficiency of PSII (Fv/Fm ratio), and ion leakage were determined as previously described ([Zhang et al., 2020], [2022b]; [Guo et al., 2022]).
Figure S4. […]
after 1 to 10 days of treatments. Three independent experiments were performed with 8 leaves measured for each […]
determined by one-way ANOVA (α = 0.05) followed by Bonferroni post-hoc test for multiple comparisons (*P ≤ 0.05, ***P […]
indicate statistically significant differences compared to WT, as determined by one-way ANOVA analysis (α = 0.05) […]

The values that follow come from publication PMC11630628 (Molecular Plant, 2024).

B1: SERINE-RICH ENDOGENOUS PEPTIDE 10 (peptide)
peptide: ALPYHHELFLGRKRMNYYKPNSAIGTPSSTSDHAPGSNGRKLMSIYRPNGDIFTGPSGSGHGGGRTPAP
notes: processed from PROSCOOP10; synthesized by GenScript
On to B1, for which the “senescence phenotype, SCOOP10 alone (sequential assay control)” value in [1] (SCOOP10 alone, Figures 5D and 5E, n = 8 leaves per replicate) is “significant senescence phenotypes”. In experiment [1] (exogenous peptide, SCOOP10 1 μM for 5 days (Figure 2A, 2B; Supplemental Figure 3)), the “leaf senescence phenotype, detached leaves” value is “premature senescence phenotype in detached leaves”. For the same molecule, the “competition for MIK2 binding (pull-down signal)” value in experiment [2] is on record as “the SCOOP12-MIK2 complex resulted in a stable interaction with SCOOP10 application at the concentrations tested”. The “sensitivity of bak1 mutants (root growth inhibition, published)” value with bak1 mutants is “sensitive to SCOOP10 application”. Also, in [3], the “senescence induction, WT compared with mik2 mutants” value was “More profound senescence was induced by SCOOP10 treatments in WT than in mik2 mutant plants”. In [4], the “immune response (published)” value was “inducing plant immune responses”. Moreover, the “interaction with MIK2 ectodomain” value in experiment [5] is “SCOOP10 interacts with MIK2”. Besides, the “root growth inhibition in bak1-5 serk4 (published)” value in experiment [6] is “milder phenotype in response to SCOOP10 treatment”. The PROSCOOP10 expression entry with PROSCOOP10 transcript (1 μM peptide, detached leaves, vs mock, qPCR) is “reduced expression”. The “PROSCOOP10 expression, SCOOP10/SCOOP10-pretreated leaves” value in the experiment on PROSCOOP10 transcript (reduction in SCOOP10/SCOOP10-pretreated leaves vs mock, 1 μM) is given as “more pronounced”. In [7] (1 to 10 days, WT, sixth rosette leaves), the “Chl content, intact rosette leaves” value is recorded as “reduced Chl content”. Also, the “leaf senescence, intact rosette leaves” value in experiment [7] (10 days, 4-week-old WT, three experiments, 8 leaves each) is recorded as “significantly accelerated leaf senescence”. Besides, the “Fv/Fm ratio, intact rosette leaves” value in experiment [7] (WT) was “reduced Chl content and Fv/Fm ratio”.
